# Like-named read-outs stand apart in the source and are kept apart here.
# B1: TRTKM1 (Ac-ARTKIDWNKILS-NH2) (peptide)
# peptide: Ac-ARTKIDWNKILS-NH2
# B2: TRTKM6 (Ac-TRTKIAWNKILS-NH2) (peptide)
# peptide: Ac-TRTKIAWNKILS-NH2
# B3: human S100B (natural protein, UniProt P04271 1-92, looked up)
# chain: MSELEKAMVALIDVFHQYSGREGDKHKLKKSELKELINNELSHFLEEIKEQEVVDKVMETLDNDGDGECDFQEFMAFVAMVTTACHEFFEHE
# B4: TRTKM5 (Ac-TRTKADWNKILS-NH2) (peptide)
# peptide: Ac-TRTKADWNKILS-NH2
# B5: human S100P (natural protein, UniProt P25815 1-95, looked up)
# chain: MTELETAMGMIIDVFSRYSGSEGSTQTLTKGELKVLMEKELPGFLQSGKDKDAVDKLLKDLDANGDAQVDFSEFIVFVAAITSACHKYFEKAGLK
# B6: TRTKM9 (Ac-TRTKIDWNAILS-NH2) (peptide)
# peptide: Ac-TRTKIDWNAILS-NH2
# B7: human S100A2 (natural protein)
# chain: not shown
# B8: TRTKM11 (Ac-TRTKIDWNKIAS-NH2) (peptide)
# peptide: Ac-TRTKIDWNKIAS-NH2
# B9: TRTKM10 (Ac-TRTKIDWNKALS-NH2) (peptide)
# peptide: Ac-TRTKIDWNKALS-NH2
# Key:
# human S100P [1] = target: B5; assay: other fluorescence titration
# human S100A2 [2] = target: B7; assay: other fluorescence titration
# Sequence of human S100A2 (P29034 whole entry): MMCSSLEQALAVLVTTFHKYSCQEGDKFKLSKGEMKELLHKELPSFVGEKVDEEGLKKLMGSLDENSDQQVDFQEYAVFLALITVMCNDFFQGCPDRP
# human S100B [3] = target: B3; assay: other fluorescence titration
# human S100B [4] = target: B3; assay: ITC
# human S100P [5] = target: B5; assay: ITC
# human S100A2 [6] = target: B7; assay: ITC
# [7] = target: T1, TRTK12 wild-type peptide (Ac-…-NH2) (N-terminus acetylated; C-terminus amidated); assay: stopped-flow fluorescence
# [8] = target: T1, TRTK12 wild-type peptide (Ac-…-NH2); assay: stopped-flow fluorescence; remark: listed apart in the source
# [9] = target: T1, TRTK12 wild-type peptide (Ac-…-NH2); assay: other fluorescence titration
# [10] = target: T1, TRTK12 wild-type peptide (Ac-…-NH2); assay: ITC
# [11] = target: T1, TRTK12 wild-type peptide (Ac-…-NH2); assay: other fluorescence titration; remark: listed apart in the source
# [12] = target: T1, TRTK12 wild-type peptide (Ac-…-NH2); assay: ITC; remark: listed apart in the source
# [13] = target: T1, TRTK12 wild-type peptide (Ac-…-NH2); assay: stopped-flow fluorescence; remark: listed apart in the source
# [14] = target: T1, TRTK12 wild-type peptide (Ac-…-NH2); assay: other fluorescence titration; remark: listed apart in the source
# [15] = target: T1, TRTK12 wild-type peptide (Ac-…-NH2); assay: stopped-flow fluorescence; remark: listed apart in the source
# [16] = target: T1, TRTK12 wild-type peptide (Ac-…-NH2); assay: ITC; remark: listed apart in the source
Kd (human S100P [1]) [µM],Kd (human S100A2 [2]) [µM],Kd (human S100B [3]) [µM],Kd (human S100B [4]) [µM],Kd (human S100P [5]) [µM],Kd (human S100A2 [6]) [µM],Binder,further results
7 ± 3,16 ± 1,0.2 ± 0.1,2.9 ± 1,2 ± 0.5,15.2 ± 1,B1,
,23 ± 3,5 ± 1,1.3 ± 0.6,7.4 ± 1,21.5 ± 4,B2,
,,,,,,B3,koff [7]: 86 s⁻¹; koff [8]: 53 s⁻¹; kon [8]: 3.1e+07 M⁻¹ s⁻¹; Kd [9]: 3 ± 1 µM; Kd [10]: 1.7 ± 0.1 µM
100 ± 23,,0.6 ± 0.6,1.2 ± 0.4,56.2 ± 4,131 ± 6.1,B4,
,,,,,,B5,Kd [11]: 11 ± 1 µM; Kd [12]: 5.1 ± 0.3 µM; koff [13]: 286 s⁻¹; kon [13]: 5.6e+07 M⁻¹ s⁻¹
30 ± 10,17 ± 4,2 ± 1,1.7 ± 0.1,7.1 ± 0.5,45 ± 2,B6,
,,,,,,B7,Kd [14]: 43 ± 9 µM; koff [15]: ≥ 250 s⁻¹; Kd [16]: 48 ± 3 µM
,,10 ± 3,3.8 ± 1,31.7 ± 0.5,504 ± 9.7,B8,
,,,,43.1 ± 3.9,,B9,

# Reference: PMC3839042 (Biochemistry, 2013)
